Laboratory results published in the DeepSol protein solubility set.

assay: soluble on expression in E. coli; label from the status in PepcDB or PDB records

Soluble on expression in E. coli, soluble:
MALREFSSVKVGDQLPEKTYPLTRQDLVNYAGVSGDLNPIHWDDEIAKVVGLDTAIAHGMLTMGIGGGYVTSWVGDPGAVTEYNVRFTAVVPVPNDGKGAELVFNGRVKSVDPESKSVTIALTATTGGKKIFGRAIASAKLA
MANYPKELPAQTQSRQPGIESEMNPSPVYEYEDYKGADKLKGKVALITGGDSGIGRAVSVAYAKEGADIAIVYKDEHEDAEETKKRVEQEGVKCLLIAGDVGEEEFCNEAVEKTVKELGGLDILVNNAGEQHPKESIKDITSEQLHRTFKTNFYSQFYLTKKAIDYLKPGSAIINTTSINPYVGNPTLIDYTATKGAINAFTRTMAQALVKDGIRVNAVAPGPIWTPLIPATFPEETVAQFGQDTPMGRPGQPVEHVGCYVLLASDESSYMTGQTLHVNGGNFVT
MAPKDNTWYTGAKLGFSQYHDTGFINNNGPTHENQLGAGAFGGYQVNPYVGFEMGYDFLGRMPYKGSVENGAYKAQGVQLTAKLGYPITDDLDIYTRLGGMVFRADTKSNVYGKNHDTGVSPVFAGGVEYAITPEIATRLEYQFTNNIGDAHTIGTRPDNGMLSLGVSYRFGQGEAA
MAPPNGTTNGETEVATQGSYTAVSTGRKTTMHRLIEEHGSVLMPGVQDALSAAVVEKTGFHAAFVSGYSVSAAMLGLPDFGLLTTTEVVEATRRITAAAPNLCVVVDGDTGGGGPLNVQRFIRELISAGAKGVFLEDQVWPKKCGHMRGKAVVPAEEHALKIAAAREAIGDSDFFLVARTDARAPHGLEEGIRRANLYKEAGADATFVEAPANVDELKEVSAKTKGLRIANMIEGGKTPLHTPEEFKEMGFHLIAHSLTAVYATARALVNIMKILKEKGTTRDDLDQMATFSEFNELISLESWYEMESKFKNFTPKAT
MAQGEKITVSNGVLNVPNNPIIPFIEGDGTGPDIWNAASKVLEAAVEKAYKGEKKITWKEVYAGEKAYNKTGEWLPAETLDVIREYFIAIKGPLTTPVGGGIRSLNVALRQELDLFVCLRPVRYFTGVPSPVKRPEDTDMVIFRENTEDIYAGIEYAKGSEEVQKLISFLQNELNVNKIRFPETSGIGIKPVSEEGTSRLVRAAIDYAIEHGRKSVTLVHKGNIMKFTEGAFKNWGYELAEKEYGDKVFTWAQYDRIAEEQGKDAANKAQSEAEAAGKIIIKDSIADIFLQQILTRPNEFDVVATMNLNGDYISDALAAQVGGIGIAPGANINYETGHAIFEATHGTAPKYAGLDKVNPSSVILSGVLLLEHLGWNEAADLVIKSMEKTIASKVVTYDFARLMDGATEVKCSEFGEELIKNMD
MAQGFAVGFDPLGLGDLSSGSLSSLSSRGHLGSDSGSTATRYLLRKQQRLLNGPPRGIRASSPMGRVILINSPIEANSDESDIIHSVRVEKSPAGRLGFSVRGGSEHGLGIFVSKVEEGSSAERAGLCVGDKITEVNGLSLESTTMGSAVKVLTSSSRLHMMVRRMGRVPGIKFSKEKTTWVDVVNRRLVVEKCGSTPSDTSSEDGVRRIVHLYTTSDDFCLGFNIRGGKEFGLGIYVSKVDHGGLAEENGIKVGDQVLAANGVRFDDISHSQAVEVLKGQTHIMLTIKETGRYPAYKEMVSEYCWLDRLSNGVLQQLSPASESSSSVSSCASSAPYSSGSLPSDRMDICLGQEEPGSRGPGWGRADTAMQTEPDAGGRVETWCSVRPTVILRDTAIRSDGPHPGRRLDSALSESPKTALLLALSRPRPPITRSQSYLTLWEEKQQRKEKSGSPGEKGALQRSKTLMNLFFKGGRQGRLARDGRREAWTLDSGSLAKTYPRLDIEKEMGAT
MARASGASDYRSGELSHQDERGAAHMVDITEKATTKRTAVAAGILRTSAQVVALISTGGLPKGDALATARVAGIMAAKRTSDLIPLCHQLALTGVDVDFTVGQLDIEITATVRSTDRTGVEMEALTAVSVAALTLYDMIKAVDPGALIDDIRVLHKEGGRRGTWTRR

Soluble on expression in E. coli, not soluble:
MALPKFELLSLADNTVGWGPLASSSSADEPVPFQQFNKADRIGRVADWIGVDRFYRRGNERYNERVYGSAANAGSQFDYIHGMDEHNFQLVDTSKPMARNPQRNFRVRQMHLRKMMQKENEKREMVNQSTNLRMKRSIAKEQQRAFKMWQRRGGNARQGQRGQGGRFGGDRPKERLPSVQVRPEWVVLEEMNLSAFSKLALPNIPGGDDIGDHQYGSLQYYDKTIDRVSVKNSIPLQRCAGVFYNVTTTEDPVIQELAQGGAGNVFGTDIILATLMTAPRSVYSWDIVAYRVGDKLFFDKRNTRDILNPVETLTVSETSAEPPSFDGNGINNAKDLATEAFYINQNFRRQVVKRNDAGFTFKNARAPFEDEETGESGTAYKYRKWNLGNGVDGKPVELVCRTELDGVIHGLGNETQTLTIKAFNEWDSTQSGGVDWRTKLDVQKGAVMATEIKNNSAKVAKWTLQALLAGSDTMKLGYVSRNNARSTQNHSILLTQYVKPTEFASNIALNMDNCWGILRCVIDSCMKQKPGKYLLMKDPQSPVIRLYSLPEGTFESERESSDEENSDDDQ
MALPTIESFKKLSSEDKRQVLDHLFEPCNTLSNFVFIKVLHQQYNTYPEFINLVRKELLEFLKQSETFQSQYQGEISPVINEIISAHPRLGEPKKETLSVHSNNEQKTLNNDPEIIKKLKELNAAYEKTFPGLRYVVFVNGRSRHEIMDNMQKRIERNDINLERVEAFNAMCDIALDRANKLGIKL
MALRRVKNPEMWNDDLYNLMFRFTKPNGTFATFTAASAVRKGLESAGFNVTKRKGFGKKRECLSGLKIQSKSTALSTPWYLAQPAKMEKQDVAIIGGGIASLCAAISLIKRGAKVTIYCEDDALALNASGNKQGAFYPQLSDDNALTVDFYLHAFSYGRQLLDWAIEQNIVFEHEFCGVALCAYNEKSAVKLTKISQLGLPNEIFQMLSAEQLSEKVGLPLNCEGGWIEQGAWLAPRQFVQNAFSFLEKQGVVIKTAQKITALSQLEKGWELKNMQGQKYCHEVVILANGHKITDFVQTEKLPLYPIRGQVSQIPTSENLLKLKSVLCYDGYLTPANQLKTSHCIGASMFVIMLIAILANKNNKKINKNSSKISPNLGRKMWIHQIISLVLEHHHHHH
MAMNVTEIVLKKPVTAHNEMLHVLELREPTYDEIEALGFPFIISGEGSIKLDSQVALKYIPLLAGIPCSSAAQMAKLDIFKTSMQILRFFTQSETGSTSGNDSTMLPGSGN
MANAFGLSLGTALRRDPAEGPVRPQRPLGRLIWLHAPTRDSARPMAELGRRIILDEGFPVLLTTHVPVSSGGILIVQPPPPDTPAAVAAFLDHWRPDAAFMAEGELRPSLINSAFDRNVPLALVDGAAPRILPGRESWWPGQMRNLLAKFRHIFTLDEAAARAFRKAGSSSHVTQVAGRLEEGSLALPCTEAERAALARLLAPRQVWLAAGLPIEEEAAAIAAHHAALKLAHRMLLIVVPQEPDRAAAFAARCEAEGWKVARRAADEEPDADTEVFVADGMAELGLWYRLAPVTWLGGSLSVGCVLDPLEAASLGSALIHGPHFGPHGATLARLSAARASLPVASARGLAEALADLLAPDRVARLAHAGWAVASEGTEVTDRMVALAGRLVEREALEHHHHHH
MANGTVKIAEQSGVLPIAGDKIVLITARGSGRWIIPKGYIEKGMSPAESAAKEAWEEAGIVGSVRHEEIGTYSYRRPSGIFSVRIYPLEVESLLEQWDEMHVRQRRLVTPSEAIEMICLKELRSLITDYLIKRFDFLEHHHHHH
MANSAGSMIKEFCAENFTKIPQAIQKGANRIELCDNLAVGGTTPSTGVIEEVLAYAGEHSVPVMTIIRPRGGNFVYNDIELKIMHTDLIEAKKLGTDGIVIGCLTEDGWLDEEALDLFIETAEGLQITFHMAFDALSKENQFKAIDWLAERGVTRILTHGGPAGTPIEDNFDHLKELIVYADQRILILPGGGISTENVQTVMDTLKVTEVHGTKIVLEHHHHHH
MAPQPFDIDTPSLRVFLPAPELATGRAIVACPGGGYGGLAVNHEGYDWAPYFNKQGIALIVLKYRMPHGDRTLPISDAEAAMKMARDSADVWNLNPYDIGIMGSSAGGHLASTIATHTRPELRPNFQILFYPVITMDKSYTHIGSHDNLLGKDAFAELETEFSNEKQVTKETPRAFIAYSDDDKTVPPANGVNYYLGLHKNHVPAVLHIYASGGHGWGIRENFIYLEHHHHHH
MAPSKSKEKKEKAKTSRRKSGSQTKKDTTSTVSEGKSPTEVADQLLKAKSRPQMYDLLKGHAAFNVPEFVKNLPVNVRLPIPIRDNRRVLCGSDEEFFPGQYVRMEGAEYIIVQAPTKKSSKLIWRVILKDHIRILVCLCHDEQMSGSDDGKCYTYFPTELEQKMEAELMKGTLSIVCKAREGLSMGATKYELELTDSEVVIDKNSDDPNASNYKSHRLIVFHMNTWSGQKPTSGNALEQAQNVALFFREVKKFEMDILRKSMENFVPPVMLQSFDGINRASTGWVALMLLRDVEKRECFDVPSLIKAIMKFRNGSISTYYQFCFCMAVCLNIGKHTNWCANDCSTALTDLMEKFGNRKLNELGNLAV
MAPVVCDVCGVRRAVVLQRHTGRRLCRECFREDIVGRVRREVERWGMIGPGETVLLGLSGGKDSYVLLDALSEIVGPSRLVAVSIVEGIPGYNREGDIEKIRRVAAARGVDVIVTSIREYVGASLYEIYSRARGRGAGHAACTYCGISRRRILALYARLYGAHKVATAHNLDDEAQTAIVNFLRGDWVGMLKTHPLYRSGGEDLVPRIKPLRKVYEWETASYVVLHRYPIQEAECPFINMNPTLRARVRTALRVLEERSPGTLLRMMERLDEELRPLAQAMKPSSLGRCERCGEPTSPKRRLCKLCELLEEAGFQEPIYAIAGRGKRLRLQSPTASPG
MAPYKKSKQKQQKIQKERLRQQQKLDLAEGSVNIPDQDRSRSQDFSMNSTNSSALQDPLQQQPRPVETEKQQKARKERLRYQMKQLGTPCEPVTFSEEITKQLDELYESDDLPDMGLKSVWKRRLGIPMKKLNDWLKQKAFEKCHVSAQTGSCESSKSNSPSESTKSMGSAVLSSSTEPRTPEESHCAPEKSPESTENASPLSSSAEPETPEETSTSMVQIPENFKNKRLSQDLVDKLQELFQINEMPGREISEQWAQQLGISLKTLNNWMQKKRSQKLHPEQAKLKSQRWQETRRLRRAGLNQEKVEKALPYLEAAFKRCQFATQQTMAELKLNTSLQKSQIRLWFSRRRKAPDATHVPAIESDSDDLVELRALFNATEEDDDSDIEILRDTRQEQEEYRNRPEVRAMIERMFGVGGGGGSLDSGIPLQ
MAQGNQQIDNQVLHHLRQKFPEVPEDVVCECVLQNKSDLAACCEYLTKVSPRFLYSEGSQSLTDLRNHMTQLNLGVSQNTHGAVQRDAVGMNGSRTLAPSVSDGPLNVPSALSEFYQPETPSVPTHTPASLSMESTRKPQPPQHLGLYQVGGKGHAPPQAPRFNPITVTLAPNTGRNTPTSLHIHGGPQSGLNSPNSIYIRPYVTQPGSTRQVQCRAQYSPTSQPAQQIYQITHPAAPQSSWSQHQTSHVYMPISSPTNTHTHTRFTCVCARVRMPVCLIHGNGR
MAQNESPAEQLFAAIGLLRRHTRRRVGRPWPETPLTGSQVELVRLLRRRPGTSVAEAAAALGLAANTVSTLVRQLTDAGLVERVRDESDRRVARLALTDDARAQVERWRDRRNIEVAAAFDGLSAEDRKAIESAIPAITRLAGALHPDQAGPSDQEVVR
